Laboratory results published in the supplement of paper PMC9732359.
± gives the uncertainty stated by the source.

Experiment: protein stability index of a GFP-peptide fusion (yeast GPS) (PSI 1-4); higher = more stable; sorted into four equal gates, so the index is relative within each strain
Method in brief: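 Mid-log yeast cultures in leucine-free medium, carrying a pooled plasmid library, were sorted into four equal gates by their GFP/Cherry fluorescence ratio. Each plasmid expressed Cherry along with GFP fused upstream of a tiled 17-residue yeast protein peptide. Plasmids recovered from each gate were PCR-amplified and Illumina-sequenced, with reads assigned to strains by barcodes. The protein stability index was obtained by summing each gate's read frequency weighted by its gate number.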

| Sequence | protein stability index (doa10∆) | protein stability index (pdr5∆) | protein stability index (san1∆) | protein stability index (ubr1∆) |
| --- | --- | --- | --- | --- |
| EYFGGESPVDVQSQVDS [FAS1] | 3.01 ± 0.14 | 3.38 ± 0.1 | 3.19 ± 0.11 | 3.07 ± 0.092 |
| PKFDVGALMALHGEGSG [RPS1A] | 2.01 ± 0.17 | 2.26 ± 0.092 | 2.23 ± 0.16 | 1.57 ± 0.089 |
| AFRRIMISEVPSVAAEY [RPC40] | 1.35 ± 0.052 | 1.49 ± 0.056 | 1.51 ± 0.079 | 1.25 ± 0.049 |
| ELVETSEVRKAVSIETA [FAS2] | 2.43 ± 0.14 |  |  | 1.27 ± 0.27 |
| FSNRFLPVASPFHSHLL [FAS1] | 2.5 ± 0.13 | 2.98 ± 0.11 | 3.19 ± 0.27 | 2.76 ± 0.098 |
| VSFRTHNSHLSLNYKFT [SRP21] | 3.01 ± 0.048 | 2.99 ± 0.046 | 3 ± 0.051 | 3.15 ± 0.039 |
| PDTSNEICDLAYQYVRA [SRB2] | 2.83 ± 0.046 | 2.93 ± 0.04 | 2.95 ± 0.046 | 3 ± 0.041 |
| RLHYYPKDPSNVETYEQ [BRR2] | 3.02 ± 0.11 | 3.11 ± 0.23 | 3.01 ± 0.24 |  |
| FEGWGHEYIRHLALEIG [RPN1] | 2.18 ± 0.098 | 2.06 ± 0.071 | 2.41 ± 0.12 | 2.1 ± 0.083 |
| NESEKDQWLEEYKKHFP [UBP6] | 3.31 ± 0.16 | 3.6 ± 0.19 |  | 3.32 ± 0.11 |
| VLKKPNRAMEYDALLSI [RET1] |  | 2.33 ± 0.19 | 1.69 ± 0.28 |  |
| MAKVHGSLARAGKVKSQ [RPS30A] | 2.38 ± 0.067 | 2.7 ± 0.068 | 2.49 ± 0.066 | 2.44 ± 0.054 |
| IRIYFTEKDDNKTNNED [NUT1] | 2.82 ± 0.1 | 2.95 ± 0.071 | 2.84 ± 0.13 | 2.87 ± 0.074 |
| KLLATSTKIIMLLLNDS [SRB8] | 1.57 ± 0.065 | 1.46 ± 0.059 | 1.48 ± 0.16 | 1.23 ± 0.071 |
| NAVSFDTTFSDFKEVED [SRB4] | 3.13 ± 0.043 | 2.53 ± 0.039 | 2.6 ± 0.039 | 2.74 ± 0.039 |
| VEITFGKEFGDVSVKMG [RRP45] | 1.38 ± 0.073 | 1.68 ± 0.083 | 1.32 ± 0.19 | 1.79 ± 0.12 |
| TSPLYMDPGAPLPVETP [SSN2] | 3.09 ± 0.12 | 2.82 ± 0.12 | 2.75 ± 0.17 | 2.81 ± 0.11 |
| DVLKVNTLVRPNGTKKA [RPL25] | 2.75 ± 0.087 | 2.91 ± 0.08 | 2.89 ± 0.1 | 3.26 ± 0.067 |
| MSLSNKTVKELRQLLKE [RRI1] | 1.95 ± 0.094 | 1.42 ± 0.083 | 1.28 ± 0.11 | 1.85 ± 0.15 |
| LTLYLFQDYLTQQAVNL [IRR1] | 2.15 ± 0.095 | 1.91 ± 0.067 | 2.06 ± 0.15 | 2.17 ± 0.099 |
| DRETALDFIGRRGTALG [RPB2] | 2.23 ± 0.072 | 2.07 ± 0.065 | 2.22 ± 0.059 | 2.14 ± 0.066 |
| KRAKEFITTLLKSLYSF [SIN4] | 2.19 ± 0.039 | 1.94 ± 0.05 | 1.83 ± 0.07 | 1.87 ± 0.032 |
| EANFDLINIDTSIANAF [RPC40] | 2.78 ± 0.049 | 3.27 ± 0.057 | 3 ± 0.05 | 3.07 ± 0.043 |
| DPLRIAMKELAEKKIPL [RPO26] |  | 3.26 ± 0.18 |  |  |
| GVIIKVEESGEHVILGN [SNU114] | 2.65 ± 0.12 | 2.81 ± 0.086 | 3.2 ± 0.14 | 3 ± 0.073 |
| VLDSYTPSTNEPYARVS [FAS1] | 2.94 ± 0.054 | 2.76 ± 0.053 | 2.71 ± 0.066 | 3.01 ± 0.044 |
| FTNRSTMMANFEEWIKM [BRN1] | 2.12 ± 0.18 | 2.31 ± 0.19 | 2.32 ± 0.1 | 2.65 ± 0.054 |

| Sequence | protein stability index (doa10∆) | protein stability index (pdr5∆) | protein stability index (san1∆) | protein stability index (ubr1∆) |
| --- | --- | --- | --- | --- |
| FFLGYMINRLLLCALDR [RPB2] | 1.51 ± 0.17 |  |  | 1.68 ± 0.12 |
| NRERFISKLFLRGDSVI [SMD2] | 2.91 ± 0.076 | 1.65 ± 0.089 | 1.51 ± 0.14 | 3.03 ± 0.15 |
| YNSVRPFGVSTIFGGVD [PRE10] | 2.53 ± 0.083 | 2.71 ± 0.068 | 2.59 ± 0.14 | 2.57 ± 0.045 |
| GGESMEGPKKCIQVNCL [SNM1] | 1.92 ± 0.053 | 1.95 ± 0.054 | 2.23 ± 0.1 | 1.79 ± 0.054 |
| DQAELPNNASSHISASA [SNF2] | 1.79 ± 0.085 | 2.35 ± 0.068 | 2.1 ± 0.13 | 2.35 ± 0.063 |
| RYNRAVPDSKIRIYDLG [RPL10] | 2.53 ± 0.092 | 3.04 ± 0.15 | 1.89 ± 0.19 | 2.55 ± 0.1 |
| NYKQLTLVGGGAKITPE [RRP43] | 1.86 ± 0.11 | 1.94 ± 0.11 | 2.22 ± 0.18 | 2.01 ± 0.15 |
| TWENEFLDSQRVWAEYA [PRP8] | 2.14 ± 0.088 | 2.27 ± 0.072 | 2.13 ± 0.11 | 2.89 ± 0.11 |
| NIDSSAQFTFGKAATAK [YOR098C/NUP1] | 3.12 ± 0.099 | 3.07 ± 0.14 | 3.22 ± 0.13 | 3.1 ± 0.072 |
| NMLPQRQSSVGSLNATN [SNF2] | 2.8 ± 0.082 | 3.3 ± 0.073 | 2.78 ± 0.052 | 3.08 ± 0.046 |
| EKVFNAYPAAREQFLNA [FAS1] | 3.16 ± 0.084 | 3.19 ± 0.094 | 3.1 ± 0.077 | 3.22 ± 0.053 |
| VGFLVQLDLTGIFLHGK [PRP8] | 2.17 ± 0.074 | 1.85 ± 0.05 | 2.33 ± 0.058 | 2.39 ± 0.067 |
| ICMESLFLEPSWSSSAA [PCI8] |  | 2.86 ± 0.12 | 2.63 ± 0.15 | 3.17 ± 0.11 |
| MLCTADTPEGEACGLVK [RET1] | 1.47 ± 0.1 | 1.77 ± 0.14 |  |  |
| RLFIKPGQKMSLFSHRK [BRN1] | 2.74 ± 0.14 | 3.06 ± 0.11 | 3.07 ± 0.13 | 3.02 ± 0.12 |
| TKHLMPQDLTFNAGSNP [RPB7] |  | 3.62 ± 0.2 | 3.22 ± 0.26 | 2.79 ± 0.24 |
| ESFAELMTKLNSFKLFK [RPC17] | 3.03 ± 0.1 | 2.71 ± 0.086 | 1.59 ± 0.099 | 2.06 ± 0.081 |
| KEECQIEDDGIIESHLI [CSN9] | 3.59 ± 0.25 | 3.23 ± 0.14 | 3.19 ± 0.084 | 3.02 ± 0.23 |
| TSQYGTPSTETAASVFK [PRE3] | 1.71 ± 0.046 | 2.29 ± 0.042 | 2.1 ± 0.047 | 2.27 ± 0.045 |
| AEVQSLFQDGSASLHTR [RRP4] | 2.57 ± 0.13 | 2.78 ± 0.16 | 2.85 ± 0.1 |  |
| VFLYFEDNAGVIANPKG [RPL23A] | 2.43 ± 0.11 | 1.96 ± 0.051 | 2.27 ± 0.12 | 1.9 ± 0.047 |
| GKTIVVKDLGQGLKLAK [SMC3] | 2.9 ± 0.15 | 2.92 ± 0.15 | 2.45 ± 0.16 | 2.81 ± 0.067 |
| APAVELHGNAKKAAEEA [FAS2] | 3.42 ± 0.12 | 3.11 ± 0.14 | 3.1 ± 0.12 | 3.3 ± 0.15 |
| YKHIDASGSINRKVLQA [RPS19A] | 2.06 ± 0.072 | 3.27 ± 0.12 | 2.49 ± 0.073 | 2.53 ± 0.083 |
| FKYVSVRYEEKRELKQL [BRR2] | 2.63 ± 0.068 | 2.93 ± 0.056 | 2.93 ± 0.067 | 3.13 ± 0.05 |
| ETQLKVVTRSKEAFEEE [SMC1] |  | 3.25 ± 0.15 |  | 3.39 ± 0.085 |
